Data taken from paper PMC8897147.

Molecular target: SV1, splice variant of GHRHR, -Rluc8
Assay: FRET or BRET

Sequence of SV1, splice variant of GHRHR, -Rluc8 (Q02643 23-423, change not shown): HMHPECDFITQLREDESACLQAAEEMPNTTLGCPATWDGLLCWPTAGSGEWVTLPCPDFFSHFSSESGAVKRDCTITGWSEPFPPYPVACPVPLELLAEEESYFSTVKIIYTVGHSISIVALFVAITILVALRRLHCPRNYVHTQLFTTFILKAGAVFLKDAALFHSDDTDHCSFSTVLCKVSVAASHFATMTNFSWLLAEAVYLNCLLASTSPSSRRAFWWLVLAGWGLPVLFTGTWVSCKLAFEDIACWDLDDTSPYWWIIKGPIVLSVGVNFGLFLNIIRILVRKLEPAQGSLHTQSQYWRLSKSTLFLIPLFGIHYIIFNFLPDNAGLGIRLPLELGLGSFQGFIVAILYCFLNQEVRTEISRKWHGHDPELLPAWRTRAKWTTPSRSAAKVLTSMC
Sequence of RAMP2-Ypet (receptor activity-modulating protein 2) (O60895 43-175): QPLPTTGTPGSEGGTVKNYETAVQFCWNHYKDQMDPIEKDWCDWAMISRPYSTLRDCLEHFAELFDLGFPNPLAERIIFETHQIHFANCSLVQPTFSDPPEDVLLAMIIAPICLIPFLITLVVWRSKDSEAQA

| BRET50 (Kd) (intensity ratio of RAMP:receptor) | Substance |
| --- | --- |
| 4.4 | RAMP1-Ypet (receptor activity-modulating protein 1) (from UniProt O60894 27-148) (natural protein) |
| 2.36 | RAMP2-Ypet (receptor activity-modulating protein 2) (from UniProt O60895 43-175) (natural protein) |
